Assay [1] deals with T1, Human GPA33 (recombinant protein, Novoprotein) (human, UniProt Q99795 22-235).
T1 construct: Bought recombinant protein immobilized on a CM5 chip; also called GPA33 antigen; tumor antigen GPA33
T1 sequence: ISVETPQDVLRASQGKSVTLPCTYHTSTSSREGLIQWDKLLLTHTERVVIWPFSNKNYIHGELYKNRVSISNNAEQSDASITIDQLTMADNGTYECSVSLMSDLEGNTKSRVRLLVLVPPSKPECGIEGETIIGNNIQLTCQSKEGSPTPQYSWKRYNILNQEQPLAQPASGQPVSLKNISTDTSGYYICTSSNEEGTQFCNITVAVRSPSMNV
Nature of the assay: SPR (Biacore), human GPA33 immobilised on the chip; KD relative to that of BC015. The method, boiled down:
(§1)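 Recombinant human GPA33 (Novoprotein) was immobilised on a CM5 sensor chip, and antibodies were injected at five concentrations in 2-fold serial dilutions from 20 nM. Affinity (KD) was determined by surface plasmon resonance on a Biacore system, with kinetic fitting of the sensorgrams giving rate constants and KD. Every KD is reported as a ratio to the KD of a reference molecule.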
(In general: SPR reads the build-up and loss of mass on a sensor chip optically.)

For assay [2], the target named is T2, Human GPA33 on GPA33+ colorectal cancer cell lines (Colo 205, LS 174T, SW 1222) (human, UniProt Q99795 22-319).
T2 construct: Endogenous GPA33 on human colorectal cancer cell lines; also called surface human GPA33; GPA33+ tumor cell lines
T2 sequence: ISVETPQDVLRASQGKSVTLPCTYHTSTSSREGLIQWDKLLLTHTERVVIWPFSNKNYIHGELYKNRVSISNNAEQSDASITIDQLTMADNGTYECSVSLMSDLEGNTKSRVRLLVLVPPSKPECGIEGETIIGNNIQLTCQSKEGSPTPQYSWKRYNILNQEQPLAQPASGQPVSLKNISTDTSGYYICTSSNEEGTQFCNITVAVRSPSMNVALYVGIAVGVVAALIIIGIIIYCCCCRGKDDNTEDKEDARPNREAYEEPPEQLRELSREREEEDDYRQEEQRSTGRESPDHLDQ
Description: FACS titration on SW1222 cells, geometric mean MFI [Cont.].

Assay [3] has as its target T2, Human GPA33 on GPA33+ colorectal cancer …. Nature of the assay: FACS titration on LS174T cells, geometric mean MFI [Cont.].
The target in assay [4] is T1, Human GPA33 (recombinant protein, …). Nature of the assay: SPR (Biacore), human GPA33 immobilised on the chip; two-state fit (ka1, kd1, ka2, kd2); temperature not given on the sheet. As to the method:
(§2) SPR analysis. Human GPA33 (Novoprotein, Summit, NJ) was immobilized on CM5 chips. Five concentrations of 2-fold serially diluted huA33 IgG1 or huA33-BsAbs (starting at 20 nM) were flowed over the chip using a Biacore™ T100 system (GE Healthcare, Chicago, IL). Binding kinetics of huA33 were measured at 25° C. and binding kinetics of huA33-BsAbs were measured at both 25° C. and 37° C. The sensorgrams were fitted with two state binding model for both to derive kinetic parameters.

Assay [5] shares this target. Nature of the assay: SPR (Biacore) on immobilized GPA33, 25 C per legend paragraph 44; two-state fit. As to the method: as §2
For assay [6] the target is unchanged. Nature of the assay: SPR (Biacore) on immobilized GPA33, 25 C per legend paragraph 44; column ka1 of the two-state fit. As to the method:
as §2

Assay [7] addresses T2, Human GPA33 on GPA33+ colorectal cancer …. Description: FACS titration on Colo205 cells, geometric mean MFI.
The target in assay [8] is T1, Human GPA33 (recombinant protein, …). Nature of the assay: SPR (Biacore) on immobilized GPA33, 25 C per legend paragraph 44; column kd1 of the two-state fit. As to the method:
as §2

In assay [9] the target is T2, Human GPA33 on GPA33+ colorectal cancer …. Nature of the assay: cell binding to SW1222 Luc cells; IgG format.
Assay [10] has as its target T1, Human GPA33 (recombinant protein, …). Nature of the assay: SPR (Biacore), human GPA33 immobilized on CM5 chip, IgG format. On the procedure:
as §2

The target in assay [11] is T2, Human GPA33 on GPA33+ colorectal cancer …. Nature of the assay: cell binding to LS174T Luc cells; IgG format.
Assay [12] has as its target T1, Human GPA33 (recombinant protein, …). Nature of the assay: SPR (Biacore), human GPA33 immobilized on CM5 chip, two-state fit. The method, boiled down: (§3)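 GPA33 immobilized on CM5 chip; five 2-fold dilutions of huA33 IgG1 or huA33 bispecifics from 20 nM injected. Kinetics measured at 25 °C for huA33, at both 25 °C and 37 °C for bispecifics; sensorgrams fitted to a two-state binding model.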

Assay [13] concerns the target T2, Human GPA33 on GPA33+ colorectal cancer …. Description: FACS titration on Colo205 cells, geometric mean MFI (the text prints 0.74 nM and calls it IC50).
For assay [14] the target is unchanged. Nature of the assay: flow cytometry, SW 1222 cells.
Assay [15] shares this target. Nature of the assay: FACS binding to Colo205 cells (GPA33+); reference row. (In general: A flow cytometer gives signals particle by particle.)
For assay [16] the target is unchanged. Description: flow cytometry, LS 174T cells.
Assay [17] has the same target. Description: FACS titration on Colo205 cells, geometric mean MFI (same value as in FIG. 4A; the text prints 0.74 nM).
In assay [18] the target is T1, Human GPA33 (recombinant protein, …). Description: SPR (Biacore), human GPA33 immobilised on the chip; reference row. The method, boiled down:
as §1

In assay [19] the target is T2, Human GPA33 on GPA33+ colorectal cancer …. Nature of the assay: FACS binding to SW1222 cells (GPA33+); reference row.
In assay [20] the target is T1, Human GPA33 (recombinant protein, …). Nature of the assay: SPR (Biacore), human GPA33 immobilized on CM5 chip, two-state fit, kd1. The method, boiled down:
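The off-rate (kd1) was determined by surface plasmon resonance against immobilised recombinant human GPA33, using a two-state binding model fit. Antibodies were tested on a CM5 chip in a Biacore T100 at five concentrations, from 20 nM in 2-fold serial dilutions. The parent IgG1 was measured at 25° C, and the bispecific formats at 25° C and 37° C.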

Assay [21] addresses T2, Human GPA33 on GPA33+ colorectal cancer …. Description: FACS binding to LS174T cells (GPA33+); reference row.
The target of assay [22] is T1, Human GPA33 (recombinant protein, …). Nature of the assay: SPR (Biacore), human GPA33 immobilized on CM5 chip, two-state fit, ka1. In a few lines:
as §3

Assay [23] has as its target T2, Human GPA33 on GPA33+ colorectal cancer …. Description: flow cytometry, Colo 205 cells; Colo 205 cells.

The values that follow come from patent US20240026037A1 (Memorial Sloan Kettering, published 2024).

B1: BC016 (G3A H3L3) (bispecific antibody, human IgG1, kappa, N297A)
heavy: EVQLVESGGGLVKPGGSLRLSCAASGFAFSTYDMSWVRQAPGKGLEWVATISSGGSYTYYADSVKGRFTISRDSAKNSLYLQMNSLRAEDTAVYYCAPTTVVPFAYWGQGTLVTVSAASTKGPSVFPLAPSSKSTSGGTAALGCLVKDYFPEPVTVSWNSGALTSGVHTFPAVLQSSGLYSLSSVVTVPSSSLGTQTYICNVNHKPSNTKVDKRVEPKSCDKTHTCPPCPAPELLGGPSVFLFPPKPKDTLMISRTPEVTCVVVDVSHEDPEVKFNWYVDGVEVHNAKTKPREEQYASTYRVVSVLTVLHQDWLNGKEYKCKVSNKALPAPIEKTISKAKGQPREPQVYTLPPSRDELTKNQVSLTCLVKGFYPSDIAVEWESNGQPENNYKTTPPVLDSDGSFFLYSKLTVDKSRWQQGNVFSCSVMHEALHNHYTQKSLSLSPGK
light: DIQMTQSPSSLSTSVGDRVTITCKASQNVRTVVAWYQQKPGKAPKTLIYLASNRHSGVPSRFSGSGSGTEFTLTISNLQPEDFATYYCLQHWSYPLTFGSGTKLEVKRTVAAPSVFIFPPSDEQLKSGTASVVCLLNNFYPREAKVQWKVDNALQSGNSQESVTEQDSKDSTYSLSSTLTLSKADYEKHKVYACEVTHQGLSSPVTKSFNRGECTSGGGGSGGGGSGGGGSHVQLVESGGGLVQPGGSLRLSCAASGFSLTDYGVHWVRQAPGKGLEWLGVIWSGGGTAYNTALISRFTISRDNSKNTLYLQMNSLRAEDTAVYYCARRGSYPYNYFDAWGCGTLVTVSSGGGGSGGGGSGGGGSGGGGSGGGGSGGGGSQAVVTQEPSLTVSPGGTVTLTCGSSTGAVTASNYANWVQQKPGQCPRGLIGGHNNRPPGVPARFSGSLLGGKAALTLLGAQPEDEAEYYCALWYSDHWVIGGGTKLTVLG
notes: GPA33xDOTA IgG-[L]-scFv; The anti-DOTA scFv is fused to the C-terminus of the light chain
Take B1: the “Fold change of KD (relative to BC015, lower is better)” value in assay [1] was found to be 0.07. The figures for the EC50 in assay [2], in assay [3] and in [7] were 0.35 nM, 0.65 nM and 0.74 nM, respectively. Moreover, the Kd in assay [4] and in assay [5] was 0.00792 nM throughout. Besides, the kon in assay [6] amounted to 5.5e+06 M⁻¹ s⁻¹. Moreover, the koff in assay [8] turned out to be 0.000511 s⁻¹.

B2: Humanized A33 antibody with variable heavy chain VH1 and variable light chain VK4 (antibody, IgG1, V domains shown)
VH: EVQLVESGGGLVKPGGSLRLSCAASGFAFSTYDMSWVRQAPGKGLEWVSTISSGGSYTYYADSVKGRFTISRDNAKNSLYLQMNSLRAEDTAVYYCAPTTVVPFAYWGQGTLVTVSA
VL: DIQMTQSPSSLSASVGDRVTITCKASQNVRTVVAWYQQKPGKAPKTLIYLASNRHTGVPSRFSGSGSGTEFTLTISNLQPEDFATYYCLQHWSYPLTFGSGTKLEVK
notes: Mouse A33 was humanized as IgG1 and tested in IgG format; also called VH1/VK4; huA33 IgG1
As for B2, the EC50 in assay [9] came to 0.466 µg/mL; in assay [11], 0.503 µg/mL. In addition, the Kd in assay [10] amounted to 0.168 nM.

B3: TC170 (bispecific antibody)
chain: EVQLVESGGGLVKPGGSLRLSCAASGFAFSTYDMSWVRQAPGKGLEWVSTISSGGSYTYYADSVKGRFTISRDNAKNSLYLQMNSLRAEDTAVYYCAPTTVVPFAYWGQGTLVTVSAGGGGSGGGGSGGGGSGGGGSGGGGSGGGGSDIQMTQSPSSLSASVGDRVTITCKASQNVRTVVAWYQQKPGKAPKTLIYLASNRHTGVPSRFSGSGSGTEFTLTISNLQPEDFATYYCLQHWSYPLTFGSGTKLEVKRGGGGSGGGGSGGGGSGGGGSHVQLVESGGGLVQPGGSLRLSCAASGFSLTDYGVHWVRQAPGKGLEWLGVIWSGGGTAYNTALISRFTISRDNSKNTLYLQMNSLRAEDTAVYYCARRGSYPYNYFDAWGCGTLVTVSSGGGGSGGGGSGGGGSGGGGSGGGGSGGGGSQAVVTQEPSLTVSPGGTVTLTCGSSTGAVTASNYANWVQQKPGQCPRGLIGGHNNRPPGVPARFSGSLLGGKAALTLLGAQPEDEAEYYCALWYSDHWVIGGGTKLTVLGTPLGDTTHTSGKPLDGEYFTLQIRGRERFEMFRELNEALELKDAQAGKEPGGSGGAPHHHHHH
notes: Single chain: anti-GPA33 scFv, anti-DOTA (C825) scFv, p53 SADA domain; The copy number 4 comes from the p53 tetramerization domain; the self-assembling and disassembling state depends on concentration; also called GPA33 SADA (TC170); GPA33xDOTA SADA
Turning to B3, in assay [12], the equilibrium dissociation constant (Kd) is 0.0158 nM. Moreover, the ka2 in assay [12] was 0.00646 s⁻¹. The kd2 in assay [12] was found to be 0.000538 s⁻¹. Moreover, the EC50 in assay [13] was determined as 0.73 nM; in [17] it was 0.73 nM; in assay [23], 0.74 nM. Further, the IC50 in [14] was determined as 1.65 nM; in assay [16], 0.31 nM. Moreover, the “fold change of binding EC50 (relative to TC170, lower is better)” value in assay [15], in assay [19] and in [21] was 1 in each case. The “Fold change of KD (relative to TC170, lower is better)” value in assay [18] came out at 1. Moreover, in [20], the koff is 0.000728 s⁻¹. In assay [22], the kon came to 3.54e+06 M⁻¹ s⁻¹.

Usually EC50 stands for the midpoint of the concentration-response curve. By Kd is commonly meant the concentration at which binding is half-saturated. As usually defined, the kon is a measure of how fast the partners come together. For orientation: koff means a measure of how fast the partners let go of each other. Usually IC50 stands for the point on the concentration scale where inhibition reaches its midpoint.
